From patent US20190256560A1 (INSTITUT PASTEUR, published 2019)

Target: T1, Recombinant soluble Zika virus E ectodomain (ZIKV sE), strain H/PF/2013 (Zika virus, UniProt A0A024B7W1 291-694)
T1 construct: also called ZIKV sE dimer; recombinant ZIKV E protein
Assay: BLI (Octet), IgG on anti-human IgG Fc sensors, ZIKV sE dimer in solution

T1 sequence (A0A024B7W1 291-694): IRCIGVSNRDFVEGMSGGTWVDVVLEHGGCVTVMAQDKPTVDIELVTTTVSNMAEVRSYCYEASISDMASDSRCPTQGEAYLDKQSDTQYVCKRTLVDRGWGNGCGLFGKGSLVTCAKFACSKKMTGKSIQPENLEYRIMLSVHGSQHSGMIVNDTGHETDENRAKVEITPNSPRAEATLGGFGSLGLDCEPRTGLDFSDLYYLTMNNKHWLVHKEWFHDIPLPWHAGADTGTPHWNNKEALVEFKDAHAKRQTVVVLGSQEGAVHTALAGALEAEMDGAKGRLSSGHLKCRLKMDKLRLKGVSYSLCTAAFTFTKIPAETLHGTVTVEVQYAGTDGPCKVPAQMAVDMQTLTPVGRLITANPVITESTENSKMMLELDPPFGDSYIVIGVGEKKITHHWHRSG

B1: EDE2 A11, human recombinant IgG (antibody, V domains shown)
VH: EVQLVESGGGLVRPGGSLRLSCAASGFSYSNHWMHWVRQAPGKGLVWVSRINSDGSTRNYADFVKGRFTISRDNAENTLYLEMNSLTADDTAVYYCVRDGVRFYYDSTGYYPDSFFKYGMDVWGQGTTVTV
VL: QSVLTQPVSVSGSPGQSITISCTGTSSNADTYNLVSWYQQRPGKAPKLMIYEGTKRPSGVSNRFSASKSATAASLTISGLQPEDEADYYCCSYATSRTLVFGGGTKLTVV
notes: Human IgG; also called IgG EDE2 A11
B1: binds.
